The test system of the assay is BirA*-FLAG-GATAD1 variants in Flp-In-293 cells. In words: BioID proximity labelling of full-length GATAD1 variants (SILAC). In kind it is cell-based, human. The settings on record: GATAD1 WT vs S102P, significant proteins only; for Log2_Ratio.H.L.normalized.WT_S102P_forward: forward experiment (label swap performed, sign inverted against the H/L ratio); for Log2_Ratio.H.L.normalized.WT_S102P_forward / Log2_Ratio.H.L.normalized.WT_S102P_reverse: log2 of normalized H/L ratio; for Ratio.H.L.normalized.WT_S102P_forward: forward experiment; for Log2_Ratio.H.L.normalized.WT_S102P_reverse / Ratio.H.L.normalized.WT_S102P_reverse: reverse experiment. The method, boiled down:
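Tetracycline-inducible Flp-In-293 T-REx lines expressing N-terminal BirA*-FLAG GATAD1 variants (WT, S102P, S102D, S102A) were SILAC-labelled, induced with 1 μg/mL tetracycline for 24 h and given 50 μM biotin overnight. Streptavidin-enriched proteins were trypsin-digested on-bead and analysed by LC-MS/MS. Label-swapped log2 SILAC ratios beyond ±1 defined differential proteins (n = 2).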

B1: THRAP3 (protein, UniProt Q9Y2W1 2-955, looked up)
Thyroid hormone …: SKTNKSKSGSRSSRSRSASRSRSRSFSKSRSRSRSLSRSRKRRLSSRSRSRSYSPAHNRERNHPRVYQNRDFRGHNRGYRRPYYFRGRNRGFYPWGQYNRGGYGNYRSNWQNYRQAYSPRRGRSRSRSPKRRSPSPRSRSHSRNSDKSSSDRSRRSSSSRSSSNHSRVESSKRKSAKEKKSSSKDSRPSQAAGDNQGDEAKEQTFSGGTSQDTKASESSKPWPDATYGTGSASRASAVSELSPRERSPALKSPLQSVVVRRRSPRPSPVPKPSPPLSSTSQMGSTLPSGAGYQSGTHQGQFDHGSGSLSPSKKSPVGKSPPSTGSTYGSSQKEESAASGGAAYTKRYLEEQKTENGKDKEQKQTNTDKEKIKEKGSFSDTGLGDGKMKSDSFAPKTDSEKPFRGSQSPKRYKLRDDFEKKMADFHKEEMDDQDKDKAKGRKESEFDDEPKFMSKVIGANKNQEEEKSGKWEGLVYAPPGKEKQRKTEELEEESFPERSKKEDRGKRSEGGHRGFVPEKNFRVTAYKAVQEKSSSPPPRKTSESRDKLGAKGDFPTGKSSFSITREAQVNVRMDSFDEDLARPSGLLAQERKLCRDLVHSNKKEQEFRSIFQHIQSAQSQRSPSELFAQHIVTIVHHVKEHHFGSSGMTLHERFTKYLKRGTEQEAAKNKKSPEIHRRIDISPSTFRKHGLAHDEMKSPREPGYKAEGKYKDDPVDLRLDIERRKKHKERDLKRGKSRESVDSRDSSHSRERSAEKTEKTHKGSKKQKKHRRARDRSRSSSSSSQSSHSYKAEEYTEETEEREESTTGFDKSRLGTKDFVGPSERGGGRARGTFQFRARGRGWGRGNYSGNNNNNSNNDFQKRNREEEWDPEYTPKSKKYYLHDDREGEGSDKWVSRGRGRGAFPRGRGRFMFRKSSTSPKWAHDKFSGEEGEIEDDESGTENREEKDNIQPTTE
With B1, the Log2_Ratio.H.L.normalized.WT_S102P_forward was found to be 1.318, the Ratio.H.L.normalized.WT_S102P_forward is 0.4011, the Log2_Ratio.H.L.normalized.WT_S102P_reverse was found to be 1.052 and the Ratio.H.L.normalized.WT_S102P_reverse turned out to be 2.0733.

B2: ESF1 (protein, UniProt Q9H501 2-851, looked up)
ESF1 homolog: SSKQEIMSDQRFRRVAKDPRFWEMPEKDRKVKIDKRFRAMFHDKKFKLNYAVDKRGRPISHSTTEDLKRFYDLSDSDSNLSGEDSKALSQKKIKKKKTQTKKEIDSKNLVEKKKETKKANHKGSENKTDLDNSIGIKKMKTSCKFKIDSNISPKKDSKEFTQKNKKEKKNIVQHTTDSSLEEKQRTLDSGTSEIVKSPRIECSKTRREMQSVVQLIMTRDSDGYENSTDGEMCDKDALEEDSESVSEIGSDEESENEITSVGRASGDDDGSEDDEEEDEDEEEDEDEDSEDDDKSDSGPDLARGKGNIETSSEDEDDTADLFPEESGFEHAWRELDKDAPRADEITRRLAVCNMDWDRLKAKDLLALFNSFKPKGGVIFSVKIYPSEFGKERMKEEQVQGPVELLSIPEDAPEKDWTSREKLRDYQFKRLKYYYAVVDCDSPETASKIYEDCDGLEFESSCSFIDLRFIPDDITFDDEPKDVASEVNLTAYKPKYFTSAAMGTSTVEITWDETDHERITMLNRKFKKEELLDMDFQAYLASSSEDEEEIEEELQGDDGVNVEEDGKTKKSQKDDEEQIAKYRQLLQVIQEKEKKGKENDMEMEIKWVPGLKESAEEMVKNKLEGKDKLTPWEQFLEKKKEKKRLKRKQKALAEEASEEELPSDVDLNDPYFAEEVKQIGINKKSVKSAKDGTSPEEEIEIERQKAEMALLMMDEDEDSKKHFNYNKIVEHQNLSKKKKKQLMKKKELIEDDFEVNVNDARFQAMYTSHLFNLDPSDPNFKKTKAMEKILEEKARQRERKEQELTQAIKKKESEIEKESQRKSIDPALSMLIKSIKTKTEQFQARKKQKVK
For the molecule B2, the Log2_Ratio.H.L.normalized.WT_S102P_forward is reported as 1.318, the Ratio.H.L.normalized.WT_S102P_forward is on record as 0.401, the Log2_Ratio.H.L.normalized.WT_S102P_reverse was 1.077 and the Ratio.H.L.normalized.WT_S102P_reverse is 2.1103.

B3: WDR70 (protein, UniProt Q9NW82 1-654, looked up)
WD repeat-containing protein …: MERSGPSEVTGSDASGPDPQLAVTMGFTGFGKKARTFDLEAMFEQTRRTAVERSRKTLEAREKEEEMNREKELRRQNEDIEPTSSRSNVVRDCSKSSSRDTSSSESEQSSDSSDDELIGPPLPPKMVGKPVNFMEEDILGPLPPPLNEEEEEAEEEEEEEEEEENPVHKIPDSHEITLKHGTKTVSALGLDPSGARLVTGGYDYDVKFWDFAGMDASFKAFRSLQPCECHQIKSLQYSNTGDMILVVSGSSQAKVIDRDGFEVMECIKGDQYIVDMANTKGHTAMLHTGSWHPKIKGEFMTCSNDATVRTWEVENPKKQKSVFKPRTMQGKKVIPTTCTYSRDGNLIAAACQNGSIQIWDRNLTVHPKFHYKQAHDSGTDTSCVTFSYDGNVLASRGGDDSLKLWDIRQFNKPLFSASGLPTMFPMTDCCFSPDDKLIVTGTSIQRGCGSGKLVFFERRTFQRVYEIDITDASVVRCLWHPKLNQIMVGTGNGLAKVYYDPNKSQRGAKLCVVKTQRKAKQAETLTQDYIITPHALPMFREPRQRSTRKQLEKDRLDPLKSHKPEPPVAGPGRGGRVGTHGGTLSSYIVKNIALDKTDDSNPREAILRHAKAAEDSPYWVSPAYSKTQPKTMFAQVESDDEEAKNEPEWKKRKI
As to B3, the Log2_Ratio.H.L.normalized.WT_S102P_forward turned out to be 1.547, the Ratio.H.L.normalized.WT_S102P_forward is listed as 0.3422, the Log2_Ratio.H.L.normalized.WT_S102P_reverse is 1.108 and the Ratio.H.L.normalized.WT_S102P_reverse turned out to be 2.1553.

B4: WDR83 (protein, UniProt Q9BRX9 1-315, looked up)
WD repeat domain-containing …: MAFPEPKPRPPELPQKRLKTLDCGQGAVRAVRFNVDGNYCLTCGSDKTLKLWNPLRGTLLRTYSGHGYEVLDAAGSFDNSSLCSGGGDKAVVLWDVASGQVVRKFRGHAGKVNTVQFNEEATVILSGSIDSSIRCWDCRSRRPEPVQTLDEARDGVSSVKVSDHEILAGSVDGRVRRYDLRMGQLFSDYVGSPITCTCFSRDGQCTLVSSLDSTLRLLDKDTGELLGEYKGHKNQEYKLDCCLSERDTHVVSCSEDGKVFFWDLVEGALALALPVGSGVVQSLAYHPTEPCLLTAMGGSVQCWREEAYEAEDGAG
For the molecule B4, the Log2_Ratio.H.L.normalized.WT_S102P_forward worked out at 1.042, the Ratio.H.L.normalized.WT_S102P_forward came out at 0.4856, the Log2_Ratio.H.L.normalized.WT_S102P_reverse came to 1.085 and the Ratio.H.L.normalized.WT_S102P_reverse is on record as 2.1217.

B5: RANBP3 (protein, UniProt Q9H6Z4 2-567, looked up)
Ran-binding protein 3: ADLANEEKPAIAPPVFVFQKDKGQKSPAEQKNLSDSGEEPRGEAEAPHHGTGHPESAGEHALEPPAPAGASASTPPPPAPEAQLPPFPRELAGRSAGGSSPEGGEDSDREDGNYCPPVKRERTSSLTQFPPSQSEERSSGFRLKPPTLIHGQAPSAGLPSQKPKEQQRSVLRPAVLQAPQPKALSQTVPSSGTNGVSLPADCTGAVPAASPDTAAWRSPSEAADEVCALEEKEPQKNESSNASEEEACEKKDPATQQAFVFGQNLRDRVKLINESVDEADMENAGHPSADTPTATNYFLQYISSSLENSTNSADASSNKFVFGQNMSERVLSPPKLNEVSSDANRENAAAESGSESSSQEATPEKESLAESAAAYTKATARKCLLEKVEVITGEEAESNVLQMQCKLFVFDKTSQSWVERGRGLLRLNDMASTDDGTLQSRLVMRTQGSLRLILNTKLWAQMQIDKASEKSIRITAMDTEDQGVKVFLISASSKDTGQLYAALHHRILALRSRVEQEQEAKMPAPEPGAAPSNEEDDSDDDDVLAPSGATAAGAGDEGDGQTTGST
Consider B5, for which the Log2_Ratio.H.L.normalized.WT_S102P_forward turned out to be 1.029, the Ratio.H.L.normalized.WT_S102P_forward was found to be 0.49, the Log2_Ratio.H.L.normalized.WT_S102P_reverse is recorded as 1.139 and the Ratio.H.L.normalized.WT_S102P_reverse was 2.2024.

B6: C11orf58;SMAP (protein, UniProt O00193 1-183, looked up)
Small acidic protein: MSAARESHPHGVKRSASPDDDLGSSNWEAADLGNEERKQKFLRLMGAGKKEHTGRLVIGDHKSTSHFRTGEEDKKINEELESQYQQSMDSKLSGRYRRHCGLGFSEVEDHDGEGDVAGDDDDDDDDSPDPESPDDSESDSESEKEESAEELQAAEHPDEVEDPKNKKDAKSNYKMMFVKSSGS
With B6, the Log2_Ratio.H.L.normalized.WT_S102P_forward came out at 1.333, the Ratio.H.L.normalized.WT_S102P_forward turned out to be 0.3971, the Log2_Ratio.H.L.normalized.WT_S102P_reverse is on record as 1.1961 and the Ratio.H.L.normalized.WT_S102P_reverse came to 2.2912.

B7: ACIN1 (protein, UniProt Q9UKV3 1-1341, looked up)
Apoptotic chromatin …: MWRRKHPRTSGGTRGVLSGNRGVEYGSGRGHLGTFEGRWRKLPKMPEAVGTDPSTSRKMAELEEVTLDGKPLQALRVTDLKAALEQRGLAKSGQKSALVKRLKGALMLENLQKHSTPHAAFQPNSQIGEEMSQNSFIKQYLEKQQELLRQRLEREAREAAELEEASAESEDEMIHPEGVASLLPPDFQSSLERPELELSRHSPRKSSSISEEKGDSDDEKPRKGERRSSRVRQARAAKLSEGSQPAEEEEDQETPSRNLRVRADRNLKTEEEEEEEEEEEEDDEEEEGDDEGQKSREAPILKEFKEEGEEIPRVKPEEMMDERPKTRSQEQEVLERGGRFTRSQEEARKSHLARQQQEKEMKTTSPLEEEEREIKSSQGLKEKSKSPSPPRLTEDRKKASLVALPEQTASEEETPPPLLTKEASSPPPHPQLHSEEEIEPMEGPAPAVLIQLSPPNTDADTRELLVSQHTVQLVGGLSPLSSPSDTKAESPAEKVPEESVLPLVQKSTLADYSAQKDLEPESDRSAQPLPLKIEELALAKGITEECLKQPSLEQKEGRRASHTLLPSHRLKQSADSSSSRSSSSSSSSSRSRSRSPDSSGSRSHSPLRSKQRDVAQARTHANPRGRPKMGSRSTSESRSRSRSRSRSASSNSRKSLSPGVSRDSSTSYTETKDPSSGQEVATPPVPQLQVCEPKERTSTSSSSVQARRLSQPESAEKHVTQRLQPERGSPKKCEAEEAEPPAATQPQTSETQTSHLPESERIHHTVEEKEEVTMDTSENRPENDVPEPPMPIADQVSNDDRPEGSVEDEEKKESSLPKSFKRKISVVSATKGVPAGNSDTEGGQPGRKRRWGASTATTQKKPSISITTESLKSLIPDIKPLAGQEAVVDLHADDSRISEDETERNGDDGTHDKGLKICRTVTQVVPAEGQENGQREEEEEEKEPEAEPPVPPQVSVEVALPPPAEHEVKKVTLGDTLTRRSISQQKSGVSITIDDPVRTAQVPSPPRGKISNIVHISNLVRPFTLGQLKELLGRTGTLVEEAFWIDKIKSHCFVTYSTVEEAVATRTALHGVKWPQSNPKFLCADYAEQDELDYHRGLLVDRPSETKTEEQGIPRPLHPPPPPPVQPPQHPRAEQREQERAVREQWAEREREMERRERTRSEREWDRDKVREGPRSRSRSRDRRRKERAKSKEKKSEKKEKAQEEPPAKLLDDLFRKTKAAPCIYWLPLTDSQIVQKEAERAERAKEREKRRKEQEEEEQKEREKEAERERNRQLEREKRREHSRERDRERERERERDRGDRDRDRERDRERGRERDRRDTKRHSRSRSRSTPVRDRGGRR
Turning to B7, the Log2_Ratio.H.L.normalized.WT_S102P_forward is given as 1.249, the Ratio.H.L.normalized.WT_S102P_forward is on record as 0.4208, the Log2_Ratio.H.L.normalized.WT_S102P_reverse turned out to be 1.096 and the Ratio.H.L.normalized.WT_S102P_reverse is reported as 2.1371.

Values taken from article PMC11009412, “Pathogenic mutations of human phosphorylation sites affect protein–protein interactions” (Nature Communications, 2024).
